*: point of attachment. FITC = O=C1OC2(c3ccc(O)cc3Oc3cc(O)ccc32)c2ccc(NC(=S)*)cc21; Ahx = NCCCCCC(=O)O
Target: recombinant MCL1 (human) (UniProt Q07820)
Test: fluorescence polarisation; direct FPA: recombinant MCL1 with FITC-peptide, 30 min, 1× PBS pH 7.4; limit of detection of the probe 5 nM

Chain of recombinant MCL1 (human) (Q07820 whole entry): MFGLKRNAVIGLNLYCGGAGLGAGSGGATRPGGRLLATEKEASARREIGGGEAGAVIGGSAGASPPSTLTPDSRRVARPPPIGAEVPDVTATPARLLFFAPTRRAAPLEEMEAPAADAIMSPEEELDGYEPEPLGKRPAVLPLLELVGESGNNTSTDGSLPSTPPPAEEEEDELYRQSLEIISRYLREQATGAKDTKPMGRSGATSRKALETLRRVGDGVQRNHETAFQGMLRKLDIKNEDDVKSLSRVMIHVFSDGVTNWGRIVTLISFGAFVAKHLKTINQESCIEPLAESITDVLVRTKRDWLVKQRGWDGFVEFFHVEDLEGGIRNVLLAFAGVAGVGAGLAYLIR

B1: FITC-AHX-BAK peptide (peptide)
peptide: {FITC-Ahx}-GQVGRQLAIIGDDINRRYD-NH2
  Kd: < 5 nM

— publication PMC7641127, “MCL1 binds and negatively regulates the transcriptional function of tumor suppressor p73” (Cell Death & Disease, 2020)
